Residue numbers refer to the chain shown, from its start.
Assays:
Experiment in all cases: holdup assay
Parameters in all cases: key: below the threshold = too weak to quantify, mostly under pKd 3.1 to 4
LAP2, Q96RT1 = target: LAP2, Q96RT1
LIN7B, Q9HAP6 = target: T1, LIN7B, Q9HAP6
T1 sequence (Q9HAP6 88-185, limits assumed, looked up): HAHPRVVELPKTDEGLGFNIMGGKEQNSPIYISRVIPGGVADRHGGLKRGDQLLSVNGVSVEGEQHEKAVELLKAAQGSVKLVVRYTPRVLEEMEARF

TJP1_3, Q07157 = target: TJP1_3, Q07157
MAGI2_4, Q86UL8 = target: MAGI2_4, Q86UL8
Sequence of MAGI2_4, Q86UL8 (Q86UL8 772-865): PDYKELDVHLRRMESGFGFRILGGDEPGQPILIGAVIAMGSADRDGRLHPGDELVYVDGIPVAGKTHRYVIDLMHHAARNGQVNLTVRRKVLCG

LNX1_3, Q8TBB1 = target: LNX1_3, Q8TBB1
Sequence of LNX1_3, Q8TBB1 (Q8TBB1 500-596): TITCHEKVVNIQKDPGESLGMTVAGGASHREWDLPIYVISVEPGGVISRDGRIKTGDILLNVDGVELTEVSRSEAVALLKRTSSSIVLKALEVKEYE

GRIP1_4, Q9Y3R0 = target: T2, GRIP1_4, Q9Y3R0
T2 sequence (Q9Y3R0 467-571, limits assumed, looked up): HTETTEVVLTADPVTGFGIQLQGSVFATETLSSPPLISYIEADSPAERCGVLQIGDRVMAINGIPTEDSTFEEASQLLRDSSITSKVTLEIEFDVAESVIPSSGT

DLG4_3, P78352 = target: DLG4_3, P78352
Sequence of DLG4_3, P78352 (P78352 306-403): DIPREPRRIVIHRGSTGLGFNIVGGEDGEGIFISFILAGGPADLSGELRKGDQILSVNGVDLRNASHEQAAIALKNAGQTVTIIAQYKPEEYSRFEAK

HTRA4, P83105 = target: T3, HTRA4, P83105
T3 sequence (P83105 378-476, limits assumed, looked up): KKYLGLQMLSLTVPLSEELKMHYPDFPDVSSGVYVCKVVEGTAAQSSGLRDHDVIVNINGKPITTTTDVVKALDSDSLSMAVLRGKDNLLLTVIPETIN

NHERF3_4, Q5T2W1 = target: T4, NHERF3_4, Q5T2W1
T4 sequence (Q5T2W1 373-468, limits assumed, looked up): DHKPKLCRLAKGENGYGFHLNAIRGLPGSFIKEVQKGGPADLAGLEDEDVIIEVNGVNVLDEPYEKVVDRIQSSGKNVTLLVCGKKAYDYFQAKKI

SCRIB_2, Q14160 = target: SCRIB_2, Q14160
Sequence of SCRIB_2, Q14160 (Q14160 857-960): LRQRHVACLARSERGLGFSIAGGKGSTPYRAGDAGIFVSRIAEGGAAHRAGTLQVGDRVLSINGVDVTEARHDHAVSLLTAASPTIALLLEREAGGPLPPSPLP

LNX1_2, Q8TBB1 = target: LNX1_2, Q8TBB1
Sequence of LNX1_2, Q8TBB1 (Q8TBB1 371-470): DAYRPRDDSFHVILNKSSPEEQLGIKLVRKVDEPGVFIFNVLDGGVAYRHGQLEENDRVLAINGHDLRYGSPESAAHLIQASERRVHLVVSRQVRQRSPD

PDZD2_2, O15018 = target: T5, PDZD2_2, O15018
T5 sequence (O15018 329-429, limits assumed, looked up): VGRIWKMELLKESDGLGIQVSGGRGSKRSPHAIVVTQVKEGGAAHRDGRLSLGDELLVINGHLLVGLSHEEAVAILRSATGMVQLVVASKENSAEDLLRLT

FRMPD2_1, Q68DX3 = target: FRMPD2_1, Q68DX3
Sequence of FRMPD2_1, Q68DX3 (Q68DX3 770-861): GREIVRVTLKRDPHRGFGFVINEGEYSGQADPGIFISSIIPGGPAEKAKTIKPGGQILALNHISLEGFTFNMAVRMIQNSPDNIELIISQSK

DLG1_3, Q12959 = target: DLG1_3, Q12959
Sequence of DLG1_3, Q12959 (Q12959 457-571): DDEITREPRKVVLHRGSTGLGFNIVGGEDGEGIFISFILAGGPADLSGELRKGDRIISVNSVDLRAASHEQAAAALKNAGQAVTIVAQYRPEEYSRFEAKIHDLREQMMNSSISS

ARHGAP21, Q5T5U3 = target: T6, ARHGAP21, Q5T5U3
T6 sequence (Q5T5U3 45-169, limits assumed, looked up): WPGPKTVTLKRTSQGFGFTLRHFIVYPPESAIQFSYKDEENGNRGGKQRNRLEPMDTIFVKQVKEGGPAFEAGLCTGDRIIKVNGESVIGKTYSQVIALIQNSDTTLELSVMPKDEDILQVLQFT

Inadl_3, Q8NI35 = target: Inadl_3, Q8NI35
Sequence of Inadl_3, Q8NI35 (Q8NI35 359-469): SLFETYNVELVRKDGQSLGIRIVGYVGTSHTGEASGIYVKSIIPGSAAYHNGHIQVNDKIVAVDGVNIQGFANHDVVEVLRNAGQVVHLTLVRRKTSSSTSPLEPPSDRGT

PDZRN3_1, Q9UPQ7 = target: T7, PDZRN3_1, Q9UPQ7
T7 sequence (Q9UPQ7 244-349, limits assumed, looked up): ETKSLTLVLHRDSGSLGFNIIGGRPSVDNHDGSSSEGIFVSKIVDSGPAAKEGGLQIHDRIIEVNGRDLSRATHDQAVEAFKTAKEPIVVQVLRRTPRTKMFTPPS

SNTG2, Q9NY99 = target: T8, SNTG2, Q9NY99
T8 sequence (Q9NY99 68-166, limits assumed, looked up): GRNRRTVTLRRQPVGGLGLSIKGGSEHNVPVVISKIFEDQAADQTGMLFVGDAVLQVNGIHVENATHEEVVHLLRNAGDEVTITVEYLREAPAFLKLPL

DLG1_2, Q12959 = target: DLG1_2, Q12959
Sequence of DLG1_2, Q12959 (Q12959 314-412): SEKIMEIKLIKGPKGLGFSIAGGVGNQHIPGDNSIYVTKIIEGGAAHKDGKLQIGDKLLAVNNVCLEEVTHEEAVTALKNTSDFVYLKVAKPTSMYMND

LNX2_3, Q8N448 = target: T9, LNX2_3, Q8N448
T9 sequence (Q8N448 463-564, limits assumed, looked up): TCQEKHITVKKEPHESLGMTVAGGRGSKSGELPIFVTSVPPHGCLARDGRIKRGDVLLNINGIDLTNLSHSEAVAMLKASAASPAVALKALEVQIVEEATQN

IL16_4, Q14005 = target: IL16_4, Q14005
Sequence of IL16_4, Q14005 (Q14005 1229-1329): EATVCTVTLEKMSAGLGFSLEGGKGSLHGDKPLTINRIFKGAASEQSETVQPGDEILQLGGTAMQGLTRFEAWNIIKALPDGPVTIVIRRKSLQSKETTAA

Inadl_6, Q8NI35 = target: Inadl_6, Q8NI35
Sequence of Inadl_6, Q8NI35 (Q8NI35 1058-1167): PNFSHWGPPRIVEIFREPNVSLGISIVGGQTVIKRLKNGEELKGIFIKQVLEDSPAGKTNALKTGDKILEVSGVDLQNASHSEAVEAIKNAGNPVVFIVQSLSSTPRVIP

APBA2_2, Q99767 = target: T10, APBA2_2, Q99767
T10 sequence (Q99767 654-744, limits assumed, looked up): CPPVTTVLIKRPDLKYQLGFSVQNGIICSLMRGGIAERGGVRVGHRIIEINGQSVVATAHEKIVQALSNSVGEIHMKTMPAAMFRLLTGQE

LIN7C, Q9NUP9 = target: T11, LIN7C, Q9NUP9
T11 sequence (Q9NUP9 88-185, limits assumed, looked up): T1 sequence (Q9HAP6 88-185, limits assumed, looked up) with A2S, D13E, V35I, V40I, Q65H, S79K, R89K, A96S

SNTB1, Q13884 = target: T12, SNTB1, Q13884
T12 sequence (Q13884 107-205, limits assumed, looked up): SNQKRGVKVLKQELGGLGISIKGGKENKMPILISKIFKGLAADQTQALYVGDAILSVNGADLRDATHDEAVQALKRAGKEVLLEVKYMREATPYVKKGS

[1] = plain residues with an end cap or a label only (N-terminal biotin on a linker: ado-ado)
[2] = modified: phospho on T at position -2 from the C-terminal residue

Sequence of LAP2, Q96RT1 (Q96RT1 other isoform, or with tags, fused parts or gaps): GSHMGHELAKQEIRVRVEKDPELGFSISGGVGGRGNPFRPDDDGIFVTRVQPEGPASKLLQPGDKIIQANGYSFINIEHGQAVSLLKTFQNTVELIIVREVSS
Sequence of TJP1_3, Q07157 (Q07157 416-512): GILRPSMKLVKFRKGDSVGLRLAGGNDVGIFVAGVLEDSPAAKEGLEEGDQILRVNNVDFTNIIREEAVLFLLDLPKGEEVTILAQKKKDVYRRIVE

B1: DCAF7, P61962 (peptide)
chain: YNNCLEILRV
pKd (LAP2, Q96RT1; [1]): below the threshold | pKd (LIN7B, Q9HAP6; [1]): below the threshold | pKd (TJP1_3, Q07157; [1]): below the threshold | pKd (MAGI2_4, Q86UL8; [1]): below the threshold | pKd (LNX1_3, Q8TBB1; [1]): 3.94 | pKd (GRIP1_4, Q9Y3R0; [1]): below the threshold | pKd (DLG4_3, P78352; [1]): below the threshold | pKd (HTRA4, P83105; [1]): 4.68 | pKd (NHERF3_4, Q5T2W1; [1]): below the threshold | pKd (SCRIB_2, Q14160; [1]): below the threshold | pKd (LNX1_2, Q8TBB1; [1]): 4.1 | pKd (PDZD2_2, O15018; [1]): below the threshold | pKd (FRMPD2_1, Q68DX3; [1]): below the threshold | pKd (DLG1_3, Q12959; [1]): below the threshold | pKd (ARHGAP21, Q5T5U3; [1]): below the threshold | pKd (Inadl_3, Q8NI35; [1]): below the threshold | pKd (PDZRN3_1, Q9UPQ7; [1]): below the threshold | pKd (SNTG2, Q9NY99; [1]): below the threshold | pKd (DLG1_2, Q12959; [1]): below the threshold | pKd (LNX2_3, Q8N448; [1]): below the threshold | pKd (IL16_4, Q14005; [1]): below the threshold | pKd (Inadl_6, Q8NI35; [1]): below the threshold | pKd (APBA2_2, Q99767; [1]): below the threshold | pKd (LIN7C, Q9NUP9; [1]): below the threshold | pKd (SNTB1, Q13884; [1]): below the threshold

B2: GRIK2, Q13002 (peptide)
chain: RRLPGKETMA
pKd (LAP2, Q96RT1; [1]): below the threshold | pKd (LIN7B, Q9HAP6; [1]): 3.64 | pKd (TJP1_3, Q07157; [1]): below the threshold | pKd (MAGI2_4, Q86UL8; [1]): below the threshold | pKd (LNX1_3, Q8TBB1; [1]): below the threshold | pKd (GRIP1_4, Q9Y3R0; [1]): below the threshold | pKd (DLG4_3, P78352; [1]): below the threshold | pKd (HTRA4, P83105; [1]): below the threshold | pKd (NHERF3_4, Q5T2W1; [1]): below the threshold | pKd (SCRIB_2, Q14160; [1]): below the threshold | pKd (LNX1_2, Q8TBB1; [1]): below the threshold | pKd (PDZD2_2, O15018; [1]): below the threshold | pKd (FRMPD2_1, Q68DX3; [1]): below the threshold | pKd (DLG1_3, Q12959; [1]): 3.69 | pKd (ARHGAP21, Q5T5U3; [1]): below the threshold | pKd (Inadl_3, Q8NI35; [1]): below the threshold | pKd (PDZRN3_1, Q9UPQ7; [1]): below the threshold | pKd (SNTG2, Q9NY99; [1]): below the threshold | pKd (DLG1_2, Q12959; [1]): 3.66 | pKd (LNX2_3, Q8N448; [1]): below the threshold | pKd (IL16_4, Q14005; [1]): below the threshold | pKd (Inadl_6, Q8NI35; [1]): below the threshold | pKd (APBA2_2, Q99767; [1]): below the threshold | pKd (LIN7C, Q9NUP9; [1]): below the threshold | pKd (SNTB1, Q13884; [1]): below the threshold

B3: DGKH, Q86XP1 (peptide)
chain: LGRSTPQSEV
pKd (LAP2, Q96RT1; [1]): below the threshold | pKd (LIN7B, Q9HAP6; [1]): below the threshold | pKd (TJP1_3, Q07157; [1]): below the threshold | pKd (MAGI2_4, Q86UL8; [1]): 3.52 | pKd (LNX1_3, Q8TBB1; [1]): below the threshold | pKd (GRIP1_4, Q9Y3R0; [1]): below the threshold | pKd (DLG4_3, P78352; [1]): below the threshold | pKd (HTRA4, P83105; [1]): below the threshold | pKd (NHERF3_4, Q5T2W1; [1]): below the threshold | pKd (SCRIB_2, Q14160; [1]): below the threshold | pKd (LNX1_2, Q8TBB1; [1]): below the threshold | pKd (PDZD2_2, O15018; [1]): 4.72 | pKd (FRMPD2_1, Q68DX3; [1]): below the threshold | pKd (DLG1_3, Q12959; [1]): below the threshold | pKd (ARHGAP21, Q5T5U3; [1]): 4.1 | pKd (Inadl_3, Q8NI35; [1]): below the threshold | pKd (PDZRN3_1, Q9UPQ7; [1]): below the threshold | pKd (SNTG2, Q9NY99; [1]): below the threshold | pKd (DLG1_2, Q12959; [1]): 4.01 | pKd (LNX2_3, Q8N448; [1]): below the threshold | pKd (IL16_4, Q14005; [1]): below the threshold | pKd (Inadl_6, Q8NI35; [1]): below the threshold | pKd (APBA2_2, Q99767; [1]): below the threshold | pKd (LIN7C, Q9NUP9; [1]): below the threshold | pKd (SNTB1, Q13884; [1]): 4.03

B4: HPV35-E6_-2P, P27228 (peptide)
chain: SKPTRRETEV
pKd (LAP2, Q96RT1; [2]): below the threshold | pKd (LIN7B, Q9HAP6; [2]): below the threshold | pKd (TJP1_3, Q07157; [2]): below the threshold | pKd (MAGI2_4, Q86UL8; [2]): below the threshold | pKd (LNX1_3, Q8TBB1; [2]): below the threshold | pKd (GRIP1_4, Q9Y3R0; [2]): below the threshold | pKd (DLG4_3, P78352; [2]): below the threshold | pKd (HTRA4, P83105; [2]): below the threshold | pKd (NHERF3_4, Q5T2W1; [2]): below the threshold | pKd (SCRIB_2, Q14160; [2]): below the threshold | pKd (LNX1_2, Q8TBB1; [2]): below the threshold | pKd (PDZD2_2, O15018; [2]): below the threshold | pKd (FRMPD2_1, Q68DX3; [2]): below the threshold | pKd (DLG1_3, Q12959; [2]): below the threshold | pKd (ARHGAP21, Q5T5U3; [2]): 4.08 | pKd (Inadl_3, Q8NI35; [2]): below the threshold | pKd (PDZRN3_1, Q9UPQ7; [2]): below the threshold | pKd (SNTG2, Q9NY99; [2]): below the threshold | pKd (DLG1_2, Q12959; [2]): below the threshold | pKd (LNX2_3, Q8N448; [2]): below the threshold | pKd (IL16_4, Q14005; [2]): below the threshold | pKd (Inadl_6, Q8NI35; [2]): below the threshold | pKd (APBA2_2, Q99767; [2]): below the threshold | pKd (LIN7C, Q9NUP9; [2]): 4.05 | pKd (SNTB1, Q13884; [2]): below the threshold

— article PMC9482650, “Quantitative fragmentomics allow affinity mapping of interactomes” (Nature Communications, 2022)
